Measurements reported in publication PMC13228514, “The protocadherin-15-LHFPL5 tip link complex is a heterotetrameric assembly in hair cell stereocilia” (Biophysical Journal, 2026).

B1: recombinant lipoma HMGIC fusion partner-like protein 5 (LHFPL5), residues 2-219 (natural protein, Mus musculus, UniProt Q4KL25 2-219, looked up)
chain: VKLLPAQEAAKIYHTNYVRNSRAVGVMWGTLTICFSVLVMALFIQPYWIGDSVSTPQAGYFGLFSYCVGNVLSSELICKGGPLDFSSIPSRAFKTAMFFVALAMFLIIGSIICFSLFFVCNTATVYKICAWMQLAAATGLMIGCLVYPDGWDSSEVRRMCGEQTGKYTLGHCTIRWAFMLAILSIGDALILSFLAFVLGYRQDKLLPDDYKADGNEEV
notes: the results call the construct the full-length protein; also called TMHS; recombinant LHFPL5; source: HEK293 tsa201 cells co-infected with PCDH15 (or PCDH15_(1EC)) and LHFPL5 BacMam viruses; purified as a complex (Strep-Tactin, TALON, SEC)
B2: recombinant protocadherin-15 (PCDH15), residues 1-1462 (EC1-EC11 and part of the cytoplasmic region) (domain or fragment)
chain: not shown
notes: signal peptide in the construct; also called recombinant PCDH15; source: HEK293 tsa201 cells co-infected with PCDH15 and LHFPL5 BacMam viruses; purified as a complex with LHFPL5 (Strep-Tactin, TALON, SEC)
B3: native lipoma HMGIC fusion partner-like protein 5 (LHFPL5) from mouse cochlea or utricle (natural protein, UniProt Q4KL25 1-219, looked up)
chain: MVKLLPAQEAAKIYHTNYVRNSRAVGVMWGTLTICFSVLVMALFIQPYWIGDSVSTPQAGYFGLFSYCVGNVLSSELICKGGPLDFSSIPSRAFKTAMFFVALAMFLIIGSIICFSLFFVCNTATVYKICAWMQLAAATGLMIGCLVYPDGWDSSEVRRMCGEQTGKYTLGHCTIRWAFMLAILSIGDALILSFLAFVLGYRQDKLLPDDYKADGNEEV
notes: LHFPL5 (TMHS), mouse, endogenous in inner ear tissue; also called native LHFPL5; TMHS; source: endogenous, cochlea or utricle of P6 mice, solubilized (1% C12M, 0.2% CHS), supernatant
B4: native protocadherin-15 (PCDH15) from mouse cochlea or utricle (natural protein)
chain: not shown
notes: protocadherin-15, mouse, endogenous in inner ear tissue; also called native PCDH15; source: endogenous, cochlea or utricle of P6 mice, solubilized (1% C12M, 0.2% CHS), supernatant

Assays:
[1] = biological target: the molecule itself; assay: single-molecule pull-down (SiMPull); purified co-expressed recombinant PCDH15/LHFPL5 complex (100 pM) captured on slide by biotinylated anti-PCDH15 mAb 8D1; detected with 39G7 Fab-GFP and anti-LHFPL5 mAb-Alexa647 (colocalization) or with 39G7 Fab-GFP or anti-LHFPL5 Fab-GFP (photobleaching steps); TIRF; buffer with 0.005% C12M, 0.001% CHS, pH 8.0
[2] = biological target: the molecule itself; assay: single-molecule pull-down (SiMPull); solubilized cochlea supernatant of P6 mice applied to slide coated with anti-PCDH15 mAb 8D1; detected with 39G7 Fab-GFP and anti-LHFPL5 mAb-Alexa647 (colocalization) or with 39G7 Fab-GFP or anti-LHFPL5 Fab-GFP (photobleaching steps); TIRF

Protein	stoichiometry N [1]	stoichiometry N [2]
B1	2	–
B2	2	–
B3	–	2
B4	–	2
